Patent US20190365892A1 (Biogen, published 2019)
Residue numbers refer to the chain shown, from its start. Blank lines part the entries; values can stand above or below the molecule they belong to.

Legend:
[1] = biological target: VLA-4 on tumor cell lines (Mec1, JM1, U266, H929, HL60, KG1) (UniProt P13612); test: flow cytometry on JM1 (CLL) cells
[2] = biological target: VLA-4 on tumor cell lines (Mec1, JM1, U266, H929, HL60, KG1) (UniProt P13612); test: flow cytometry on H929 (MM) cells
[3] = biological target: VLA-4 on tumor cell lines (Mec1, JM1, U266, H929, HL60, KG1) (UniProt P13612); test: flow cytometry on KG1 (AML) cells
[4] = biological target: T1, α4β1 (UniProt P13612 34-970; P05556 21-728); test: competition ELISA; mixture of test mAb and mouse HP1/2 (competitor) on α4β1
T1 construct: The preparation is not described; also called VLA-4; alpha4beta1 integrin

[5] = biological target: VLA-4 on tumor cell lines (Mec1, JM1, U266, H929, HL60, KG1) (UniProt P13612); test: flow cytometry on HL60 (AML) cells
[6] = biological target: VLA-4 on tumor cell lines (Mec1, JM1, U266, H929, HL60, KG1) (UniProt P13612); test: flow cytometry on Mec1 (CLL) cells
[7] = biological target: T1, α4β1; test: competition ELISA; α4β1 preincubated with test mAb, competitor murine HP1/2
[8] = biological target: VLA-4 on tumor cell lines (Mec1, JM1, U266, H929, HL60, KG1) (UniProt P13612); test: cell-based or functional assay
[9] = biological target: VLA-4 on tumor cell lines (Mec1, JM1, U266, H929, HL60, KG1) (UniProt P13612); test: flow cytometry on U266 (MM) cells

Molecule: Humanized HP1/2 (HuHP1/2) (antibody)
EC50 [1]: 0.21 nM
EC50 [2]: 0.91 nM
EC50 [3]: 0.19 nM
IC50 [4]: 1.41 nM
EC50 [5]: 0.11 nM
EC50 [6]: 0.11 nM
IC50 [7]: 1.05 nM
IC50 (nM), inhibition of adhesion of H929 (MM) cells to Fibronectin-coated wells [8]: 0.21 nM
IC50 (nM), inhibition of adhesion of H929 (MM) cells to VCAM1-Ig-coated wells [8]: 1.35 nM
IC50 (nM), inhibition of adhesion of HL60 (AML) cells to Fibronectin-coated wells [8]: 0.16 nM
IC50 (nM), inhibition of adhesion of HL60 (AML) cells to VCAM1-Ig-coated wells [8]: 0.91 nM
IC50 (nM), inhibition of adhesion of JM1 (CLL) cells to VCAM1-Ig-coated wells [8]: 0.12 nM
IC50 (nM), inhibition of adhesion of KG1 (AML) cells to Fibronectin-coated wells [8]: 0.05 nM
IC50 (nM), inhibition of adhesion of KG1 (AML) cells to VCAM1-Ig-coated wells [8]: 0.1 nM
IC50 (nM), inhibition of adhesion of Mec1 (CLL) cells to Fibronectin-coated wells [8]: 0.1 nM
IC50 (nM), inhibition of adhesion of Mec1 (CLL) cells to VCAM1-Ig-coated wells [8]: 0.07 nM
IC50 (nM), inhibition of adhesion of U266 (MM) cells to Fibronectin-coated wells [8]: 0.14 nM
IC50 (nM), inhibition of adhesion of U266 (MM) cells to VCAM1-Ig-coated wells [8]: 0.13 nM
antibody concentration giving maximal inhibition of HL60 cell binding to FN and VCAM1-Ig [8]: 20 µg/mL
antibody concentration giving maximal inhibition of Mec1 cell binding to FN and VCAM1-Ig [8]: 20 µg/mL
antibody concentration giving maximal inhibition of U266 cell binding to FN and VCAM1-Ig [8]: 20 µg/mL
EC50 [9]: 0.46 nM

B3: H1L1 (antibody, V domains shown)
VH: EVQLVQSGAEVKKPGATVKISCKASGFNIKDTYMHWVQQAPGKGLEWMGRIDPASGDTKYDPKFQVRVTITADTSTDTAYMELSSLRSEDTAVYYCADGMWVSTGYALDFWGQGTLVTVSS
VL: SIVMTQSPDSLAVSLGERATINCKASQSVTNDVAWYQQKPGQPPKLLIYYASNRYTGVPDRFSGSGSGTDFTLTISSLQAEDVAVYFCQQDYSSPYTFGQGTKVEIK
IC50 [4]: 4.55 nM
IC50 [7]: 1.67 nM

B4: H1L3 (antibody, V domains shown)
VH: B3 VH
VL: B3 VL with S67Y, L73F, V85T
IC50 [7]: 0.49 nM

B5: Chimeric HP1/2 (antibody, V domains shown)
VH: EVQLQQSGAELVKPGASVKLSCTASGFNIKDTYMHWVKQRPEQGLEWIGRIDPASGDTKYDPKFQVKATITADTSSNTAWLQLSSLTSEDTAVYYCADGMWVSTGYALDFWGQGTTVTVSS
VL: SIVMTQTPKFLLVSAGDRVTITCKASQSVTNDVAWYQQKPGQSPKLLIYYASNRYTGVPDRFTGSGYGTDFTFTISTVQAEDLAVYFCQQDYSSPYTFGGGTKLEIK
notes: also called chimerized HP1/2 antibody; chimeric mAb
IC50 [4]: 1.64 nM
IC50 [7]: 1.06 nM

The remaining lines, values ahead:

IC50 [4]: 4.46 nM
IC50 [7]: 1.87 nM
B1: H1L0 (antibody, V domains shown)
VH: B3 VH
VL: B3 VL with S1D, F87Y

IC50 [4]: 1.34 nM
IC50 [7]: 0.9 nM
B2: H1L2 (antibody, V domains shown)
VH: B3 VH
VL: B3 VL with S67Y
